In the nanobody polyreactivity screen of Harvey et al. (2022):

Assay: yeast display, Sf9 membrane polyspecificity reagent, FACS + sequencing; frameworks hold sequencing errors
Summary of the method: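 In a synthetic yeast display library (Saccharomyces cerevisiae BJ5465), nanobody expression was induced with galactose for 36–48 hours. FACS gates were set low and high (top ~1%) using anti-HA fluorescence for expression and streptavidin fluorescence for binding of the Sf9 membrane reagent. Each polyreactivity label is drawn from the gate of origin.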

| Sequence | polyreactivity (PSR sort gate) |
| --- | --- |
| QDQLVESGGGLVQAGGSLRLSCAASGRIFKSYAMGWYRQAPGKERELVAAIGSRTYYADSVKGRFTISRDNAKNTVYLQMNSLKPEDTAVYYCAVEVWGNSKRYYYWGQGTQVTVSS | high polyreactivity |
| QVQLVESGGGLVQAGGSLRLSCAASGIIFVYYVMGWYRQAPGKERELVASIDGSGGSTNYADSVKGRFTISRDNAKNTVYLQMNSLKPEDTAVYYCNADNILYWSTLDYLGQGTQVTVSS | low polyreactivity |
| QVQLVESGGGLVQAGGSLRLSCAASGIFTYNAMGWYRQAPGKERELVASITRGGSTNYADSVKGRFTISLDNAKNTVYLQRNSLKPEDTAVYYCAARVRVYSGWLYNYWGQGTQVTVSS | high polyreactivity |
| QVQLVESGGGLVQAGGSLRLSSDASGFIFSFNALGWYRQAPGKERELVAAISRSGGSTRYADSVKGRFTISRDNAKNTVYLQMNSLKPEDTAVYYCANRFASYRYHPGYDYWGQGTQVTVSS | high polyreactivity |
| QVQLVESGGGLVQAGGSLRLSCAASGITVLKYVMGWYRQAPGKEREFVAAITARGGTTYYADSVKGRFTISRDNAKNTVYLQMNSLKQEDTAVYYCAARSYYSGLAYYYWGQGTQVTVSS | high polyreactivity |
| QVQLVESGGGLVQAGGSLRLSCAASGRIFYYYAMGWYRQAPGKERELVAAISQRGGRTYYADSVKGRFTISRDNAKNTVYLQMYSLNQEDPAVYYCNVAGVVYPWYYYWGQGTQVTVSS | high polyreactivity |
| QVQLVESGGGLVQAGGSLRLSCAASGRIFYWYTMGWYRQAPGKERELVASISGSGGSTYYADSVKGRFTISRDNAKNTVYLQMNSLKPEDTAVYYCNKGSRWLRGLDYWGQGTQVTVSS | high polyreactivity |
| QVQLVESGGGLVQAGGSLRLSCAASGIIFRPYAMGWYRQAPGKERELVAAITWSGTSTYYADSVKGRFTISRDNAKNTVYLQMNSLKPEDTAVYYCAARNVFQSVHLRGGYWGQGTQVTVSS | high polyreactivity |
| QVQLVESGGGLVQAGGSLRLSCAASGSIFRNYAMGWYRQAPGKERELVARISYSGGRTHYADSVKGRFTISRDNAKNTVYFQMNSLNPEDTAVYYCAAPFHFTHFQGNYYWGQGTQVTVSS | low polyreactivity |
| QVQLVESGGGLVQAGGSLRLSCAASGFTFVYYGMGWYRQAPGKERELVADISSGGNTYYADSVKGRFTISRDNAKNTVYLQMNSLKPEETAVYYCNKDARDEEGSSRTYDYWGQGTQVTVSS | low polyreactivity |
| QVQLVESGGGLVQAGGSLRLSCAASGFTFGGYAMGWYRQAPGKERELVAAISRSGGSTSYADSVKGRFTISRDNAKNTVYLQMNSLKPEDTAVYYCAAKFFRNTYSYGMDYWGLGTQVTVSS | high polyreactivity |
| QVQLVESGGGLVQAGGSLRLSCAASGRTLGVYTMGWYRQAPGKERELVATISWDGGITYYADSVKGRFTISRDNAKNTVYLQMNSLKPEDTAVYYCAAVDHSYGWMDYWGQGTQVTVSS | low polyreactivity |
| QVQLVESGGGLVQAGGSLRLSCAASGFIFRDNAMGWYRQSPGKERELVAAISERGGRTYYADSVKGRFTISRDNAKNTVYLQMNSLKPEDTAVYYCADEDIAKFYYWGQGTQVTVSS | high polyreactivity |
| QVQLVESGGGLVQAGGSLRLSCAASGRTSVRYAMGWYRQAPGKERELVAAISWSGGSTYYADSVKGRFTISRDNAKNTVYLQMNSLKPEDTAVYYCNAQHARGYYYWGQGTQVTVSS | low polyreactivity |
| QDQLVESGGGLVQAGGSLRLTCAASGGIFWSYAMGWYRQAPGKERDLVAAINWNAGSTYYADSVKGRFTISRDNAKNTVYLQMNSLKPEDTAVYYCAKVQWHLYDWGQGTQVTVSS | high polyreactivity |
| QVQLEESAGGLVQAGGSLRLSCAASGRSFNAYAMGWYRQAPGKERELVATISWRTGSTYYADSVKGRFTISRDNAKNTVYLQMNSLKPEDTAVYYCNAKVGSYGAQGYRFAYNYWGQGTQVTVSS | high polyreactivity |
| QVQLVESGGGLVQAGGSLRLSCAASGSIFPYNAMGWYRQERGNERELVAAISISGGSTYYADSVKGRFTISRDNAKNTVYFQMNSLKPEDTAVYYCAARQTLSSAFDYWGQGTQVTVSS | low polyreactivity |
| QVQLVQSWPGLVQEGGSLRLSSAESGYTIRWYAMGCYRQAHGKERELVASITSGGNTNYADSVKGRFTISRDNAKNTVYLQMNRLKTEDTEVYYCAATRGYYRLDYWGQGTQVTVSS | high polyreactivity |
| QEQLQESGSGLVQAGGSLRLSCAASGNIFQDWVMGWYRKAPGQERELVAAISPGAITYYADSVKGRFTISRDNAKNSVYLQTKSLKPEDTAVYYCGAYYIVEYLHGYWGQGTRVTVSS | low polyreactivity |
| QVHLVDSGGGLFQAGGILRLSCAASGRTIATNAMGWYRQAPGKERELVAGISWRVGRTYYADSVKGRFTISRDNAKNSVYLQMFSLKPEDTAVYYCAANPVRSRYGYWGQGTQVTVSS | high polyreactivity |
| QVQLVESGGGLVQAGGSLRLSCAASGFTFYSYAMGWYRQAPGKERELVATISSGGRTYYADSVKGRFTISRDNAKNTVYLQMNSLKPEDTAVYYCAARWRPHPFAPPGYYSWGQGTQVTVSS | high polyreactivity |
| QVQLVESGGGIVQAGGSLRLSCAASGSTFVTHAMGCYRQAPGKEREFVAAISWNSTSTYFADSVKGRFTISRDHAKNTVYLQMNSLKPEDTAVYYCNATTFAFSPSLKGAYGYWGQGTQVTVSS | low polyreactivity |

| Sequence | polyreactivity (PSR sort gate) |
| --- | --- |
| QVQLVESGGGLVQAGGSLRLSCAASGGIFRRYAMVWYRQAPGKERELVAGISYSGGSTYYADSVKGRFTISRDNAKNTVYLQMNSLKPEDTAVDYCATVGYVWYRSVNVWSPMDYWGQGTQVTVSS | high polyreactivity |
| QVQLVESGGGLVQAGGSLRLSCAASGSTFPTNAMGWYRQAPGKERELVAAISQRGDSTSYADSVKGRFTISRDNAKNTVYLQMNSLKPEDTAVYFCAVDAYSYYDSTWFWYDYWGQGTQVTVSS | high polyreactivity |
| QVQLVESGGGLVQAGGSLRLSCAASGRIFTRYAMGWYRQAPGKERELVATITKSGGSTYYADSVKGRFTISRDNAKNTVYLQMNSLKPEDTAVYYFAADSWWTYQYDYWGQGTQVTVSS | low polyreactivity |
| QVQLVESGGGLVQAGGSLRLSCAASGIIFGGNAMGWYRQAPGKERELVATISNGGSTKYADSVKGRFTISRDNAKNTVYLQMNSLKPEYTAVYYCAAQPRVGSYVRSSRGRYNHWGQGTQVTVSS | high polyreactivity |
| QDQLVESGGGLVQAGGSHRLSCAASGLTLTDNALGWYRQAPGKERELVAAISQSGGRTSYADSVKGRFTISRDNAKNTVYLQMNSLKPEDTAVYYCNTRRGSVAKYGYWGQGTQVTVSS | high polyreactivity |
| QVQLVESGGGLVQAGGSLRISSAASGPTFVPNAMGSYRQAPGKERELVATITSGGNTYYADSVKGRFTISRDNAKNTVYLQMNSLKPEDTAVYYCNRDWIYWGPRRNSGEYWGQGTQVTVSS | low polyreactivity |
| QVQLVESGGGLVQAGGSLRLSCAASGGIFYPNAMGWYRQAPAKERELVAANTSGGSTSYADSVKGRFTISRDNAKDTVYLQMNSLKPEDTAVYYCAASTTAYAYVNYGSWGQGTQVTVSS | low polyreactivity |
| QVQLVESGGGLVQAGGSLRLSCAASGFTFFPYAMGWYRQAPGKERELVAGITYIGGSTYYADSVKGRFTISRDNAKNTVYLQMNSLKPEDTAVYYCNAGRIGGFDWGQGTQVTVSS | low polyreactivity |
| QVQLVESGGGLVQAGGSLRLSCAASGGTFLFYGMGWYRQAPGKERELVAVITWSGGSTYYADSVKGRFTISRDNAKNTVYLQMNSLKPEDTAVYYCNAANTGSPDYQSIGYNFNYWGQGTQVTVSS | low polyreactivity |
| QVQLQESGGGLVQAGGSLRLSCAASGSISLGRGMGWYRQAPGKREFVVTIAASVNWGTNTNYADSVKGRFTISRDNAKNTLYLQMNSLKPEDTAVYYCAVLPEWETRHDYWGHGTQVTVSS | low polyreactivity |
| QVHLVESGGGLVQAGGSLRLSCAASGSTFLGYAMGWYRQAPGKERELVAAISWSGGTTYYADSVKGRFTISRDNAKNTVYFQMISQKPEDTAVYYCNVYTRGRYEYWGQGTQVTVSS | low polyreactivity |
| QVQLVESGGGLVQAGGSLRLSCAASGFIFHGYALGWYRQAPGKERELVAAITRRGGRTDYADSVKGRFTISRDNAKNTVYLQMNSLKPEDTAVYYCAKRYTATEWHGERDYWGQGTQVTVSS | high polyreactivity |
| QVQLVESGGGLVQAGGSLRLSCAASGRTFASNVMGWYRQAPGKERELVAAISRRGGSTYYADSVKGRFTISRDNAKNTVYLQMNSLKPEDTAVYYCNAVLYHLTYDYWGQGTQVTVSS | high polyreactivity |
| QVQLVESGGGLVQAGGSLRLSCAASGSTFVNYGMGWYRQAPGKERELVAAITQSGGSTYYADSVKGRFTISRDNAKNTVYLQMNSLKPEDTAVYYCAAEVVRQWHGIGYDYWGQGTQVTVSS | low polyreactivity |
| QVQLVESGGALVQAAGSLRLSCAASGRTFRRNTMGWYRQAPGKERELVAAISSSGSSTYYADSVKGRFTISRDNEKNTVYLQMNSLKPEDTAVYYCAATGSRRFGYWGQGTQVTVSS | high polyreactivity |
| QVQLVESGGGLVQAGGSLRLSCAASGFTLGRNAMGWYRQAPGKERELVASISGRGGSSYYADSVKGRFTISRDNAKNTVYLQMNSLKPEDTAVYYCAARGVSGKYYYWGQGTQVTVSS | high polyreactivity |
| QVQLVESGGGLVQAGGSLRLSCAASGRIFYRYAMGWYRQAPGKERELVAAITQSGGSTFYADSVKGRFTISRDNAKNTVYLQMNSLKPEDTAVYYCNRRGPGFYSTRFNYWGQGTQVTVSS | high polyreactivity |
| QVQLVESGGGLVQAGGSLRLSCAASGSTFYGYGMGWYRQAPGKEWELVAAITGSGDTTYYADSVKGRFTISRDNAKNTVYLQMNSLKPEDTAVYYCNARWHAEYDYWGQGTQVTVSS | low polyreactivity |
| QVQLVESGGGLVQAGGSLRLSCAASGFIFSYYVMGWYRQAPGKERELVAAINESGGRTYYADSVKGRFTISRDNAKNTVYLQMNSLKQEDTAVYYCAASVLNKIQGYRDYYWGQGTKVTVSS | low polyreactivity |
| QVQLVESGGGLVQAGGSLRLSCAASGFISFAYAMGWYRQAPGKERELVAGISRSGDSTYYADSVKGRFTISRDNAKNTVYLQMNSLKPEDTAVYYCAVVTYRSKAHSSRNGKYYYWGQGTQVTVSS | low polyreactivity |
| QDQLVESRGVLVQAGGSLRLSCAAYGRIISPYAMGWYRQAPGKERELVAAISRRGTRTNYADSVKGRFTLSRDKAKNTVYLQMNSLKPVDTAVYYCNKTPLLRWGQGTQVSVSS | high polyreactivity |
